± gives the standard error. Fewer inactive variants are shown than the library holds.
B1: glmS ribozyme (parent)
chain: AUAAAAGCGCCAGAACUACAGAAAUGUAGUUGACGAGGAGGAGGUUUAUCGAAUUUUCGGCGGAUGCCUCCAAA

How the values were obtained:
Conditions in all cases: with glucosamine-6-phosphate
glucosamine-6-phosphate [1] = variants of: B1; test: self-cleavage kobs at 40 uM GlcN6P; higher = faster cleavage; RNA array
How it was run: (§1)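 E. coli RNA polymerase transcribed barcoded ribozyme variants in situ on sequenced MiSeq chips, which were tracked via a hybridised Cy3 probe at 37 °C. Tiles were imaged over ~14 h after glucosamine-6-phosphate (40 μM to 10 mM) in HEPES/KCl/Mg(OAc)2 buffer was flowed in. Normalised per-tile medians were fit to one- or two-exponential decays for kobs, and kcat and KM came from weighted Michaelis–Menten fits.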

glucosamine-6-phosphate [2] = variants of: B1; test: self-cleavage kobs at 640 uM GlcN6P; higher = faster cleavage; RNA array
How it was run: as §1

glucosamine-6-phosphate [3] = variants of: B1; test: self-cleavage kobs at 10000 uM GlcN6P; higher = faster cleavage; RNA array
How it was run: as §1

glucosamine-6-phosphate [4] = variants of: B1; test: self-cleavage kobs at 160 uM GlcN6P; higher = faster cleavage; RNA array
How it was run: as §1

glucosamine-6-phosphate [5] = variants of: B1; test: self-cleavage kobs at 2500 uM GlcN6P; higher = faster cleavage; RNA array
How it was run: as §1

Variant	self-cleavage kobs at 40 uM GlcN6P (glucosamine-6-phosphate [1])	self-cleavage kobs at 640 uM GlcN6P (glucosamine-6-phosphate [2])	self-cleavage kobs at 10000 uM GlcN6P (glucosamine-6-phosphate [3])	self-cleavage kobs at 160 uM GlcN6P (glucosamine-6-phosphate [4])	self-cleavage kobs at 2500 uM GlcN6P (glucosamine-6-phosphate [5])
AUAAAAGUGCCAGAACUACAGAAAUGUAGUUGACGAGGAGGAGGUUUAUCGAUUUUUCGGCGGAUGCCUCCAAA	< 1e-05 s⁻¹	< 1e-05 s⁻¹	< 1e-05 s⁻¹	–	–
AUAAAAGGGCCAGAACUACAGAAAUGUAGUAGACGGGGAGGAGGUUUAUCGAAUUUUCGGCGGAUGCCUCCAAA	< 1e-05 s⁻¹	–	–	–	–
AUAAAAGGGCCAGAACUACAGAAAUGUAGUUGACGAGGAGGAGGUUUAUCGAAUUUGCGGCGGAUGCCUGCAAA	0.0017 ± 0.00055 s⁻¹	–	–	–	–
AUAAAAGUGCCAGAACUACAGAAAUGUAGUUGCCGAGGAGGAGGUUUAUCGAAUUUUCGGCGGAUGCCUCAAAA	< 1e-05 s⁻¹	–	–	–	–
AUAAAAGUGCCAGGACUACAGAAAUGUAGUUGACGAGGAGGCGGUUUAUCGAAUUUUCGGCGGAUGCCUCCAAA	< 1e-05 s⁻¹	–	–	< 1e-05 s⁻¹	< 1e-05 s⁻¹
AUAAAAGGGCCAGAACUACAGAAAUGUAGUUGACGAGGAGGAGGGUGAUCGAAUUUUUGGCGGAUUCCUCUAAA	< 1e-05 s⁻¹	–	–	–	–
AUAAAAGGGCCAGAACUACAGAAAUGUAGUUGACGAGGAGGAGGUUUAUCGAAUUUUCGGCGCAUGCCUCCAAA	< 1e-05 s⁻¹	< 1e-05 s⁻¹	–	< 1e-05 s⁻¹	< 1e-05 s⁻¹
AUAAAAGGGCCAGAACUACAGAAAUGUAGUUGACGAGGAGGAGGUUUAUCGAAUUUUCGGCGGAUUCCUCCAAA	< 1e-05 s⁻¹	< 1e-05 s⁻¹	–	< 1e-05 s⁻¹	< 1e-05 s⁻¹
AUAAAAGUGCCCGAACUACAGAAAUGUAGUUGACGAGGAGGAGGUUUAUCGAAUUUUCGGGGGAUGCCUCCAAA	< 1e-05 s⁻¹	–	< 1e-05 s⁻¹	–	< 1e-05 s⁻¹
AUAAAAGUGCCAGAACUACAGAAAUGUAGUUGUCGAGGAGGAGGUUUAUCGAAUUUUCGGCGGAUCCCUCCAAA	< 1e-05 s⁻¹	–	–	–	–
AUAAAAGUGCCAGAGCUACAGAAAUGUAGUUGACGAGUAGGAGGUUUAUCGAAUUUUCGGGGGAUGCGUCCAAA	0.00048 ± 0.00015 s⁻¹	–	0.000181 ± 4.8e-05 s⁻¹	–	–
AUAAAAGUGCCAGAACUACAGAAAUGUAGUUGACGAGGAGGAGGUUUAUCGAAUUUUCGGCGGGUGCUUCCAAA	< 1e-05 s⁻¹	–	< 1e-05 s⁻¹	–	–
AUAAAAGGGCCAGAACUACAGAAAUGUAGUUGACGAGGAGGAGGUUUAUCGAAGUUUCGGCGGAUGCCUCCAAA	< 1e-05 s⁻¹	–	–	–	–
AUAAAAGUGCCAGAACUACAGAAAUGUAGUUGACGAGGUGGAGGGUUAUCGAAUUUUCGGCGGAUGCCUGCAAA	< 1e-05 s⁻¹	–	< 1e-05 s⁻¹	–	–
AUAAAAGUGACAGAACUACAGAAAUGUAGUUGACGAGGAGGAGGUUUAUGGAAUUUUCGGCGGAUGCCUCCAAA	9.57e-05 ± 2e-05 s⁻¹	–	9.18e-05 ± 1.7e-05 s⁻¹	0.000179 ± 2.8e-05 s⁻¹	8.56e-05 ± 2.1e-05 s⁻¹
AUAAAAGUGACAGAACUACAGAAAUGUAGUUGACGAGGAGGAGGUUUAUAGAAUUUUCGGCGGAUGCCUCCAAA	< 1e-05 s⁻¹	–	–	–	–
AUAAAAGGGCCAGAACUACAGAAAUGUAGUUGACGAGGAGGAGGCUUAUCGAAUUUUCGGCAGAUGCCUCCAAA	< 1e-05 s⁻¹	–	< 1e-05 s⁻¹	–	–
AUAAAAGUGACAGAACUACAGAAAUGUAGUUGACGAGGAGGAGGUUUAUCGAAUUUUCGGCGGAUGCCUCCAAA	< 1e-05 s⁻¹	< 1e-05 s⁻¹	< 1e-05 s⁻¹	< 1e-05 s⁻¹	< 1e-05 s⁻¹
AUAAAAGGGCCAGAACUACAGAAAUGUAGAUGACGAGGAGGAGGUUUAUCGAAUUUUCGGCGGAUGCCUCCAAA	< 1e-05 s⁻¹	< 1e-05 s⁻¹	< 1e-05 s⁻¹	< 1e-05 s⁻¹	–
AUAAAAGGGCCAGAACUACAGAAAUGUAGUUGACGAGGAGGAGGUUUAUCGAAUCUUCGGUGGAUGCCUCCAAA	< 1e-05 s⁻¹	< 1e-05 s⁻¹	–	–	< 1e-05 s⁻¹
AUAAAAGGGCCAGAACUACAGAAAUGUAGUUGACGAGGAGGAGGCUUAUCGAAUUUUCGGCGGAUGCCUCCAAA	< 1e-05 s⁻¹	< 1e-05 s⁻¹	< 1e-05 s⁻¹	< 1e-05 s⁻¹	< 1e-05 s⁻¹
AUAAAAGGGCCAGAACUACAGAAAUGUAGUUGACGAGGAGGAGGUUACUCGAAUUUUCGGCGGAUGCCUGCAAA	< 1e-05 s⁻¹	< 1e-05 s⁻¹	< 1e-05 s⁻¹	< 1e-05 s⁻¹	–
AUAAAAGUGCCAGAGCUACAGAAAUGUAGUUGAUUUGGAGGAGGUUUAUCGAAUUUUCGGCGGAUGCAUCCAAA	< 1e-05 s⁻¹	< 1e-05 s⁻¹	–	< 1e-05 s⁻¹	–
AUAAAAGUGCCCGAACUACAGAAAUGUAGUUGACGAGGAAGAGGGUUAUCGAAUUUUCGACGGAUUCCUCCAAA	< 1e-05 s⁻¹	–	–	–	–
AUAAAAGUGCCAGAUCUACAGAAAUGUAGGUGACCAGGAGUAGGUUUAUCGAAUUUUCGGCGGAUGCCUCCAAA	< 1e-05 s⁻¹	< 1e-05 s⁻¹	–	–	< 1e-05 s⁻¹
AUAAAAGUGCCCGAGCUACAGAAAUGUAGUUGACGAGGAGGAGGUUUAUCGAAUUUUCGGCGGAUGUCUCCAAA	< 1e-05 s⁻¹	–	< 1e-05 s⁻¹	–	–
AUAAAAGUGCCAGAACUACAGAAAUGUAGUUGACGAGGCGGAGGUUUAUCGAAUUUUCGGCGGAUGCCUCCAAA	< 1e-05 s⁻¹	< 1e-05 s⁻¹	< 1e-05 s⁻¹	< 1e-05 s⁻¹	< 1e-05 s⁻¹
AUAAAAGGGCCAGAACUACAGAAAUGUAGUAGACGAGGAGGAGGUUUAUCGAAUUAUCGGCGGAUGCCUACAAA	< 1e-05 s⁻¹	–	< 1e-05 s⁻¹	–	–
AUAAAAGUGUCAGAACUACAGAAAUGUAGUUGACGAGGAGGAGGUUUAUAGAAUUUUCGGCGGAUGGCUCCAAA	6.47e-05 ± 2.3e-05 s⁻¹	–	0.000228 ± 4.1e-05 s⁻¹	–	–
